From US20260139007A1 (SANFORD BURNHAM PREBYS MEDICAL DISCOVERY INSTITUTE, published 2026)
One block for each binder: values may come before it. Bridge positions count the residues as written; N and C are the ends. Square brackets hold non-standard residues; d marks the D form. Ends that are not written are not given here. βAla = NCCC(=O)O

Columns and labels:
[1] = biological target: T1, EphA4 Fc (human EphA4 Fc, #CJ75, Novoprotein, or mouse EphA4 Fc, #641-A4, R&D Systems/BioTechne) (human or mouse, UniProt P54764 20-547); test: competition ELISA, inhibition of ephrin-A5 AP binding to immobilized EphA4 Fc; 0 time point, compound diluted in mouse plasma in vitro (apparent IC50)
T1 construct: extracellular domain; bought reagents; also called EphA4 extracellular domain fused to the Fc portion of an antibody; not shown: Fc portion of an antibody
T1 sequence (P54764 20-547): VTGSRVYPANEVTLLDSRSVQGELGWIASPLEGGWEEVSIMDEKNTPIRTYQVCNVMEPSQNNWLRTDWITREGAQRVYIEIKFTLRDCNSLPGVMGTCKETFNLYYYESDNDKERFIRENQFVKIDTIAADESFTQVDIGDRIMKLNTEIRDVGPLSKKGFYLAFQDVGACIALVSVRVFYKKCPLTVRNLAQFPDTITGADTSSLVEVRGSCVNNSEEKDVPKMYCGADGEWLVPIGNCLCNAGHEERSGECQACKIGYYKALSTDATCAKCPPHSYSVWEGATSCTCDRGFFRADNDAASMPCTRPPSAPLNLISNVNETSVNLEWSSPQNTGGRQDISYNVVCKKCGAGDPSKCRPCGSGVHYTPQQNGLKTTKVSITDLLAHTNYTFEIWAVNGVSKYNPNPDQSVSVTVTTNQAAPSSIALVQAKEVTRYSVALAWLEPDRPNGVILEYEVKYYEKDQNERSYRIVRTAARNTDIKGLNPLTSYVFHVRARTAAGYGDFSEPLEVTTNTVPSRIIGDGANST

[2] = biological target: T1, EphA4 Fc (human EphA4 Fc, #CJ75, …); test: competition ELISA, inhibition of ephrin-A5 AP binding to immobilized EphA4 Fc
[3] = biological target: T1, EphA4 Fc (human EphA4 Fc, #CJ75, …); test: competition ELISA, ephrin-A5 AP on immobilized EphA4 Fc, with and without 20 mg/mL BSA
[4] = biological target: T1, EphA4 Fc (human EphA4 Fc, #CJ75, …); test: competition ELISA, inhibition of ephrin-A5 AP binding to immobilized EphA4 Fc, with 20 mg/ml BSA
[5] = biological target: T1, EphA4 Fc (human EphA4 Fc, #CJ75, …); test: competition ELISA, ephrin-A5 AP on immobilized EphA4 Fc, same experiments
[6] = biological target: T1, EphA4 Fc (human EphA4 Fc, #CJ75, …); test: competition ELISA, inhibition of ephrin-A5 AP binding to immobilized EphA4 Fc, with serum albumin (40 mg/mL HSA by the text; the cell has no footnote)

IC50 [1]: 81 nM
B1: compound 14 (peptide)
peptide: XPYCVYRXSWSCGGKG
modifications: β-alanine at 1 and 8; lauroyl-γ-glutamic acid on the side chain of the Lys of the C-terminal GGKG; C-terminal amide; disulfide bond Cys4-Cys12 (cyclic)
notes: also called peptide 14

IC50 [2]: 18 nM
fold decrease in potency with BSA against buffer [3]: ~8 fold
IC50 [4]: 130 nM
B2: compound 21 (peptide)
peptide: [βAla]PYCVYR[βAla]SWSCRLIEDICLPRWGCLWEDD-NH2
modifications: disulfide 4-12, 19-25; N-terminus assumed
SMILES: CC[C@H](C)[C@H](NC(=O)[C@H](CC(C)C)NC(=O)[C@H](CCCNC(=N)N)NC(=O)[C@@H]1CSSC[C@H](NC(=O)[C@H](Cc2ccc(O)cc2)NC(=O)[C@@H]2CCCN2C(=O)CCN)C(=O)N[C@@H](C(C)C)C(=O)N[C@@H](Cc2ccc(O)cc2)C(=O)N[C@@H](CCCNC(=N)N)C(=O)NCCC(=O)N[C@@H](CO)C(=O)N[C@@H](Cc2c[nH]c3ccccc23)C(=O)N[C@@H](CO)C(=O)N1)C(=O)N[C@@H](CCC(=O)O)C(=O)N[C@@H](CC(=O)O)C(=O)N[C@H](C(=O)N[C@H]1CSSC[C@@H](C(=O)N[C@@H](CC(C)C)C(=O)N[C@@H](Cc2c[nH]c3ccccc23)C(=O)N[C@@H](CCC(=O)O)C(=O)N[C@@H](CC(=O)O)C(=O)N[C@@H](CC(=O)O)C(N)=O)NC(=O)CNC(=O)[C@H](Cc2c[nH]c3ccccc23)NC(=O)[C@H](CCCNC(=N)N)NC(=O)[C@@H]2CCCN2C(=O)[C@H](CC(C)C)NC1=O)[C@@H](C)CC
notes: also called peptide 21

fold decrease in potency (IC50) against APY-d2 [5]: ~2 fold
IC50 [2]: 67 nM
IC50 [6]: 55 nM
B3: compound 1 (peptide)
peptide: APYCVYK[βAla]SWSC-NH2
modifications: disulfide 4-12; N-terminus assumed
SMILES: CC(C)[C@@H]1NC(=O)[C@@H](NC(=O)[C@H](Cc2ccc(O)cc2)NC(=O)[C@@H]2CCCN2C(=O)[C@H](C)N)CSSC[C@@H](C(N)=O)NC(=O)[C@H](CO)NC(=O)[C@H](Cc2c[nH]c3ccccc23)NC(=O)[C@H](CO)NC(=O)CCNC(=O)[C@H](CCCCN)NC(=O)[C@H](Cc2ccc(O)cc2)NC1=O
notes: also called peptide 1; APYCVYKβASWSC-NH2
